Measurements reported in patent publication US20060020118A1.

Target: human IFNAR1 (first human interferon-alpha receptor), membrane form on cells (human) (UniProt P17181)
Experiment: flow cytometry, fluoresceinated control IgG on U266 cells, no soluble hIFNAR1

UniProt P17181, sequence (P17181 28-557): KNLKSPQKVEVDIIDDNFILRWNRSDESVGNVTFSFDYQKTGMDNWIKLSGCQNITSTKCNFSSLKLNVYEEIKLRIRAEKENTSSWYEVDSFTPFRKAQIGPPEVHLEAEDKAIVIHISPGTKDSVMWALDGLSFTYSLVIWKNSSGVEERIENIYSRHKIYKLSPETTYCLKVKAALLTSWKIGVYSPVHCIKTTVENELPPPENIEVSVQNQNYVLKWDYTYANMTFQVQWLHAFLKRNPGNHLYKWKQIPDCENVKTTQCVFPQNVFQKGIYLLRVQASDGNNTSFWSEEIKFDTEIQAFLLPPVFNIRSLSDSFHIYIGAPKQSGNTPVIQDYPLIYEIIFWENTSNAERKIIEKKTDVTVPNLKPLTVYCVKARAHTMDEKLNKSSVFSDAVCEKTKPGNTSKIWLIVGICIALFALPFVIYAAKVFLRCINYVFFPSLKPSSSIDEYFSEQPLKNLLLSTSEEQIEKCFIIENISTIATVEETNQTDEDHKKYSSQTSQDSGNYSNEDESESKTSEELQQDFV

Mean Fluorescence Intensity: 2.99
Substance: fluoresceinated control IgG (antibody)
